Reference: patent US20170355766A1 (Xencor, published 2017)
Changes are numbered by the printed parent chain. In names and notes the source's numbering stands.

T1: FcγRIIaR (human, UniProt P12318)
T1 construct: recombinant receptor protein with 6xHis and GST tags; also called R131 FcγRIIa
T1 sequence (receptor, looked up): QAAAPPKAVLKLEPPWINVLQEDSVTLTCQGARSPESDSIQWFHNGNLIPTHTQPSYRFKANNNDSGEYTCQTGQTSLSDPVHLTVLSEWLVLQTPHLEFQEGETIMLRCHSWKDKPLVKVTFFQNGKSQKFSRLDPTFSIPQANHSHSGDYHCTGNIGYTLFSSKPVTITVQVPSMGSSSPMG

T2: human H131 FcγRIIa receptor protein (6xHis and GST tags) (human, UniProt P12318 34-217, limits assumed)
T2 construct: also called HIIa
T2 sequence (looked up): T1 sequence (receptor, looked up) with R134H

T3: human FcγRIIb receptor protein (R&D Systems) (human, UniProt P31994 46-217)
T3 construct: Analyte injected over antibodies captured on a protein A/G chip (Biacore); also called CD32b
T3 sequence (looked up): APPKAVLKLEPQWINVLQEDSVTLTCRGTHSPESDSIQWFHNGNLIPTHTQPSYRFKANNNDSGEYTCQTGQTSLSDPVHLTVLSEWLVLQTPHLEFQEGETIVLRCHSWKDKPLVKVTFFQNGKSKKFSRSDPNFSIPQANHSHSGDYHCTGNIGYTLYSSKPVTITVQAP

B1: A327N (antibody, human IgG1, kappa)
heavy: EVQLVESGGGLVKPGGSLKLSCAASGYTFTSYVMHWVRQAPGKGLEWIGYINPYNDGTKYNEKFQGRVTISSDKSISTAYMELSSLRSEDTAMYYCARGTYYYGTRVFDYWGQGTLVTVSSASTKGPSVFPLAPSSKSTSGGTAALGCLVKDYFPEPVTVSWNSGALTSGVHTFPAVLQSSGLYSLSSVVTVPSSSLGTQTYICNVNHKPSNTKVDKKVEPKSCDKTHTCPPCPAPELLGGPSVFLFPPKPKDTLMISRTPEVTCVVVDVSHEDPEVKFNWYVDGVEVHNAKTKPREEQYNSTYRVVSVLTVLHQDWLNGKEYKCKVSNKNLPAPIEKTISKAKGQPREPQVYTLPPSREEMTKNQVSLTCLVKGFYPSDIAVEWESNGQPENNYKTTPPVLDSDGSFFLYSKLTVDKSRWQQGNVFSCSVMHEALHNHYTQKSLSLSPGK
light: DIVMTQSPATLSLSPGERATLSCRSSKSLQNVNGNTYLYWFQQKPGQSPQLLIYRMSNLNSGVPDRFSGSGSGTEFTLTISSLEPEDFAVYYCMQHLEYPITFGAGTKLEIKRTVAAPSVFIFPPSDEQLKSGTASVVCLLNNFYPREAKVQWKVDNALQSGNSQESVTEQDSKDSTYSLSSTLTLSKADYEKHKVYACEVTHQGLSSPVTKSFNRGEC
notes: HuAM4G7 IgG1 Fc variant
B2: H268D (antibody, human IgG1, kappa)
heavy: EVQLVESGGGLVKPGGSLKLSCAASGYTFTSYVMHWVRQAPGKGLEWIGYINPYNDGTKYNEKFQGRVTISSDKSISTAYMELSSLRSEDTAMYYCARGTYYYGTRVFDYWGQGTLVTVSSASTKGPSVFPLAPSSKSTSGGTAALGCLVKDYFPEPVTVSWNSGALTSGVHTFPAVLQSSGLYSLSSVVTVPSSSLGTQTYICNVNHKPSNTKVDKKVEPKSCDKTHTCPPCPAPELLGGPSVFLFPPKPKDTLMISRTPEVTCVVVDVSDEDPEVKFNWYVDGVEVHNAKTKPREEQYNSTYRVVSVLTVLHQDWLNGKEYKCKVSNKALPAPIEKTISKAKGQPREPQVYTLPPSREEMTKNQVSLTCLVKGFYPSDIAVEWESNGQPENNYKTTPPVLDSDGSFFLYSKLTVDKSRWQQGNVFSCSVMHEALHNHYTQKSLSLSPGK
light: B1 light
notes: HuAM4G7 IgG1 Fc variant
B3: H268E (antibody, human IgG1, kappa)
heavy: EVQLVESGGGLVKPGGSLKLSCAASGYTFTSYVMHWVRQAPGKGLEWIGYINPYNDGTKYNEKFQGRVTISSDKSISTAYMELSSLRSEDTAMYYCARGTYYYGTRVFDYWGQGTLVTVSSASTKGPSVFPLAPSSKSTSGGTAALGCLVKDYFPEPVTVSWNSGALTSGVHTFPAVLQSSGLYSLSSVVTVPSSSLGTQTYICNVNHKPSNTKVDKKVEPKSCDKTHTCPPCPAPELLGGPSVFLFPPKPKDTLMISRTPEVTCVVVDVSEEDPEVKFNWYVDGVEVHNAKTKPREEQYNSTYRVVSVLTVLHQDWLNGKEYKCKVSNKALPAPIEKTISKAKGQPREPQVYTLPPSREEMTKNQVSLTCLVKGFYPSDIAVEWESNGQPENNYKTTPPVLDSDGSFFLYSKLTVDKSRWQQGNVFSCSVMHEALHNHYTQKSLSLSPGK
light: B1 light
notes: HuAM4G7 IgG1 Fc variant
B4: G236D/S267E/L328F (antibody, human IgG1, kappa)
heavy: EVQLVESGGGLVKPGGSLKLSCAASGYTFTSYVMHWVRQAPGKGLEWIGYINPYNDGTKYNEKFQGRVTISSDKSISTAYMELSSLRSEDTAMYYCARGTYYYGTRVFDYWGQGTLVTVSSASTKGPSVFPLAPSSKSTSGGTAALGCLVKDYFPEPVTVSWNSGALTSGVHTFPAVLQSSGLYSLSSVVTVPSSSLGTQTYICNVNHKPSNTKVDKKVEPKSCDKTHTCPPCPAPELLDGPSVFLFPPKPKDTLMISRTPEVTCVVVDVEHEDPEVKFNWYVDGVEVHNAKTKPREEQYNSTYRVVSVLTVLHQDWLNGKEYKCKVSNKAFPAPIEKTISKAKGQPREPQVYTLPPSREEMTKNQVSLTCLVKGFYPSDIAVEWESNGQPENNYKTTPPVLDSDGSFFLYSKLTVDKSRWQQGNVFSCSVMHEALHNHYTQKSLSLSPGK
light: B1 light
notes: HuAM4G7 IgG1 Fc variant
B5: G236N/S267E (antibody, human IgG1, kappa)
heavy: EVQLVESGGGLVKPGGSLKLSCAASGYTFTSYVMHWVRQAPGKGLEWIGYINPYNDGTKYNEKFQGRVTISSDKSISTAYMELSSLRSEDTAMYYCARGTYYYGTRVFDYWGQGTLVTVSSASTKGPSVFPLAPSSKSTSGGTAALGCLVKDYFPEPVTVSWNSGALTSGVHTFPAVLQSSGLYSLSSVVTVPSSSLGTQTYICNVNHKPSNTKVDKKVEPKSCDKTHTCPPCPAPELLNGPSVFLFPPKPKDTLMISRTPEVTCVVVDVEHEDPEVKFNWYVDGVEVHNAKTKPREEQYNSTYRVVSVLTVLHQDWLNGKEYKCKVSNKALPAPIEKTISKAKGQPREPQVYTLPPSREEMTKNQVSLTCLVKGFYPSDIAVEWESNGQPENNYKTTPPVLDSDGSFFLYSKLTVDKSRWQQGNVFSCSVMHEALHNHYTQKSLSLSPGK
light: B1 light
notes: HuAM4G7 IgG1 Fc variant
B6: G236D/S267E/H268E (antibody, human IgG1, kappa)
heavy: B4 heavy with H272E, F332L
light: B1 light
notes: HuAM4G7 IgG1 Fc variant
B7: G236D/S239D/S267E (antibody, human IgG1, kappa)
heavy: B4 heavy with S243D, F332L
light: B1 light
notes: HuAM4G7 IgG1 Fc variant
B8: L234E/S267E (antibody, human IgG1, kappa)
heavy: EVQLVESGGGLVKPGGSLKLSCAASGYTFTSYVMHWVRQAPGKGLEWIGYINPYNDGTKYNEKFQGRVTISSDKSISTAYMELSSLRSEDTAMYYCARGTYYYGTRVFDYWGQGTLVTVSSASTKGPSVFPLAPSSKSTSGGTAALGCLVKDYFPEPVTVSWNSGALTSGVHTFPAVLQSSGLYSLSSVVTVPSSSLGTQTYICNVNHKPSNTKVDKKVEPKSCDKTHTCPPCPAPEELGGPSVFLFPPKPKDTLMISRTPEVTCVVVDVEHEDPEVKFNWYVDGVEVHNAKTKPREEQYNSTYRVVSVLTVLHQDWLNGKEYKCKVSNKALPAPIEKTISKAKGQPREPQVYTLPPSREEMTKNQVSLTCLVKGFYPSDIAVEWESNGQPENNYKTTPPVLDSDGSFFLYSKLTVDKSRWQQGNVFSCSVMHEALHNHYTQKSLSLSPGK
light: B1 light
notes: HuAM4G7 IgG1 Fc variant
B9: G237D/S267E (antibody, human IgG1, kappa)
heavy: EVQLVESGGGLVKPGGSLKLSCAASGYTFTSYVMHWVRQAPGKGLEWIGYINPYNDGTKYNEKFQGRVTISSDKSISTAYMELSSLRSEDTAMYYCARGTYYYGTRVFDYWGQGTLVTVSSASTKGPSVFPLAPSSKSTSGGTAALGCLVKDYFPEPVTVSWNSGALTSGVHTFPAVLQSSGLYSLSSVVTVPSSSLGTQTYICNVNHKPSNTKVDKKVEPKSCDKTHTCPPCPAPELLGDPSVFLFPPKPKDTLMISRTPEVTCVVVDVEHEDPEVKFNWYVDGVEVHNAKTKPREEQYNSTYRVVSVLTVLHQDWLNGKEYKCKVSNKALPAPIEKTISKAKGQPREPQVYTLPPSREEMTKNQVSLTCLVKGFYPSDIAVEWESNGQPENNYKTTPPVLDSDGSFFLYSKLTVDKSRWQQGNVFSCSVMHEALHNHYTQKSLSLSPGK
light: B1 light
notes: HuAM4G7 IgG1 Fc variant
B10: G237A (antibody, human IgG1, kappa)
heavy: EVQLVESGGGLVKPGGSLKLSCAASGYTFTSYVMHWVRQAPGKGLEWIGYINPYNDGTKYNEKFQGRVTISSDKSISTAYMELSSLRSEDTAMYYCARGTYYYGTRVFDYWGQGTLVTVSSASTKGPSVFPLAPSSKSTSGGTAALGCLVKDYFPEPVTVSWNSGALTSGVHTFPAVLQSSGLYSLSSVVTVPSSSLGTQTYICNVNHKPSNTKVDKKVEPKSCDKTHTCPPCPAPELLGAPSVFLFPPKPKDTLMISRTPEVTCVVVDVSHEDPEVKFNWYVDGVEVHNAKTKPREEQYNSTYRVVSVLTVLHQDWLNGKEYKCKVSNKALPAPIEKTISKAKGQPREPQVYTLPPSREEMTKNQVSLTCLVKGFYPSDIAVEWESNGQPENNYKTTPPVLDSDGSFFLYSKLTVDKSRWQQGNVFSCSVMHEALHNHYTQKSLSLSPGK
light: B1 light
notes: HuAM4G7 IgG1 Fc variant

Legend:
Test in all cases: SPR (Biacore)
[1] = biological target: T1, FcγRIIaR
[2] = biological target: T4, human V158 FcγRIIIa receptor protein (6xHis and GST tags) (human, UniProt P08637 17-208, limits assumed)
T4 construct: also called VIIIa

[3] = biological target: T5, human FcγRI receptor protein (R&D Systems) (human, UniProt P12314 16-288)
T5 construct: also called CD64

[4] = biological target: T2, human H131 FcγRIIa receptor protein …
[5] = biological target: T3, human FcγRIIb receptor protein (R&D …)

T5 sequence (P12314 16-288 limits assumed): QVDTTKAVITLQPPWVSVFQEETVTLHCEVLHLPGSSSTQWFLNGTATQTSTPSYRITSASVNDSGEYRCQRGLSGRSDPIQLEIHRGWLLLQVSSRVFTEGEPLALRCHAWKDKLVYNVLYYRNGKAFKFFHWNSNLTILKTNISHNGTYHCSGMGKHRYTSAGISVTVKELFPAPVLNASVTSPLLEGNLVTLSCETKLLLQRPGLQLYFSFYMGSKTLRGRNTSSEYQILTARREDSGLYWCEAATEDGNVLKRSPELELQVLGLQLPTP
T4 sequence (P08637 17-208 F176V limits assumed): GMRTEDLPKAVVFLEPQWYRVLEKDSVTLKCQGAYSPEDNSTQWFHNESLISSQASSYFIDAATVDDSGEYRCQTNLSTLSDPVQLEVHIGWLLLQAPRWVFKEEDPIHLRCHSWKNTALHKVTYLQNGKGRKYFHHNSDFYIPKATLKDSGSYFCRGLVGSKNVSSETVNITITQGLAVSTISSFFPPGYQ

Binder	Fold FcγRIIaR [1]	binding result [2]	Fold FcγRI [3]	binding result [4]	Fold FcγRIIb [5]	Fold FcγRIIIaV [2]	Fold FcγRIIaH [4]
B1	0.609 fold	no binding	0.0279 fold	no binding	0.843 fold		
B2	4.19 fold		2.35 fold		3.06 fold	3.08 fold	1.89 fold
B3	3.19 fold		2.74 fold		2.62 fold	2.19 fold	1.43 fold
B4	59.9 fold	no binding	0.0736 fold		149 fold		0.0301 fold
B5	3.27 fold	no binding	0.0355 fold	no binding	19.8 fold		
B6	29.9 fold	no binding	0.0902 fold		110 fold		0.103 fold
B7	26.7 fold	no binding	0.0685 fold		84.8 fold		0.217 fold
B8	10.7 fold	no binding	0.131 fold	no binding	15.1 fold		
B9	13.6 fold	no binding	0.0874 fold	no binding	17 fold		
B10	0.704 fold	no binding	0.0108 fold	no binding	0.191 fold		
